Results on six molecules are retold here after US20250276077A1 (IMMUNOME, published 2025).

Assay [1] addresses T1, EphA4_ECD (aa 23-546), Full ECD, displayed on yeast (human, UniProt P54764 23-546).
T1 construct: also called EphA4 full ECD
Put plainly: yeast surface display, flow cytometry titration.

For the next assay, the target named is T2, FcGR1 (human, UniProt P12314 16-374).
T2 construct: whole, on cells
Put plainly: flow cytometry, 6,000 human membrane proteins expressed on HEK293 cells.

Assay [2] concerns the target T3, EphA4 (homologous receptor, screening at Integral Molecular) (human, UniProt P54764 20-986).
T3 construct: whole, on cells
Put plainly: membrane protein screening on cells.

Assay [3] has as its target T4, mouse EphA2 on mouse tumour cells (mouse, UniProt Q03145 26-977).
T4 construct: whole, on cells
Put plainly: flow cytometry, CT26 cells (in vitro). On the procedure: (§1) Surface binding of the antibodies to in vitro grown cell lines was assessed by flow cytometry. Tumor cells were detached from their culture plate using Versene and counted. Cells were staining in BSA-containing buffer with primary antibody for 30 minutes at 4° C. with shaking. Following, cells were washed and stained with secondary PE-labeled antibody for 30 minutes at 4° C. with shaking. Before analysis on an Intellicyt iQue3 scanner, cells were counterstained with DAPI. MedFI values from live, single cells was expressed as fold over isotype control.
A general note: A flow cytometer gives signals particle by particle.

Assay [4] has as its target T4, mouse EphA2 on mouse tumour cells. Put plainly: cell-based or functional assay.
The target in assay [5] is T5, Human EphA2 (ephrin receptor A2) on cells (human, UniProt P29317 25-976). Put plainly: cell-based or functional assay.
T5 sequence (P29317 25-976): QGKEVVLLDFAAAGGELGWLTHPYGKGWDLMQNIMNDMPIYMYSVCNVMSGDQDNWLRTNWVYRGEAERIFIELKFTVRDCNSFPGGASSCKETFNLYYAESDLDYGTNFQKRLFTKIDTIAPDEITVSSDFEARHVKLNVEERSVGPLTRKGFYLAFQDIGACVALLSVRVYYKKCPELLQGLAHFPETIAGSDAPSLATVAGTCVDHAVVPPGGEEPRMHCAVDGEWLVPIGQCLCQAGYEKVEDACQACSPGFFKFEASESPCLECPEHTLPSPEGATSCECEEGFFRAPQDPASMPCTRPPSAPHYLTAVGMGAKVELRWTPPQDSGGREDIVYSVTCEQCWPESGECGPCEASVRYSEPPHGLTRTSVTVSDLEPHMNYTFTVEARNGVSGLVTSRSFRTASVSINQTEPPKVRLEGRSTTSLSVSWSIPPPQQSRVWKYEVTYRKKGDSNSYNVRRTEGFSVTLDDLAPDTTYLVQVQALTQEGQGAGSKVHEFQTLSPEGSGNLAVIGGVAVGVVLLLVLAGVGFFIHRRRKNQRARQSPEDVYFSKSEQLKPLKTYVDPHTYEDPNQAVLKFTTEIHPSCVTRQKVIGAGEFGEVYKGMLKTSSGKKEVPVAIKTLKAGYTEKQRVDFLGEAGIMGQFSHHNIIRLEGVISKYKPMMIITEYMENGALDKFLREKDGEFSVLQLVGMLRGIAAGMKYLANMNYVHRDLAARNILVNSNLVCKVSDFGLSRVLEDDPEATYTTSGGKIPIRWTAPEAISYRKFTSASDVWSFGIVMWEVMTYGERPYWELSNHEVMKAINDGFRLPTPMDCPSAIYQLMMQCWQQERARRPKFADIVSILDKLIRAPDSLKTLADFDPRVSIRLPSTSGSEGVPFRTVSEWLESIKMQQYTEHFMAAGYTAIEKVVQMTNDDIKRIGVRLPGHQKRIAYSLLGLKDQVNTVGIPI
Assay [6] has as its target T5, Human EphA2 (ephrin receptor A2) on …. Put plainly: cell-based or functional assay. This is another data set of the same source.
The target in assay [7] is T6, hEphA2-FN2-(437-534) - Fc (human, UniProt P29317 437-534).
T6 construct: also called FN2 domain Fc fusion; not shown: human Fc, C-terminal to the EphA2 part
T6 sequence (P29317 437-534): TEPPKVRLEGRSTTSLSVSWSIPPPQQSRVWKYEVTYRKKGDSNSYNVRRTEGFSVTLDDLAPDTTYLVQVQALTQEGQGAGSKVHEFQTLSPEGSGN
Put plainly: SPR Biacore, 25 C; hEphA2-Fc fusion captured by anti-human Fc, Fab analyte. On the procedure:
(§2) The hEphA2-Fc fusions were captured with an anti-human Fe immobilized to a CM5 chip.
(§3) Biacore® assays were conducted at 25° C. using HBS-EP+ buffer (0.01 M HEPES pH 7.4, 0.15 M NaCl, 3 mM EDTA, 0.005% v/v Surfactant P20). Data was double-reference subtracted and data was analyzed using 1:1 Langmuir binding model and steady-state model in Biacore Evaluation software.
(§4) Binding to hEphA2-ECD-Fc tested using 100, 300, and 900 nM analyte.
Background: Surface plasmon resonance follows binding to a sensor surface in real time, without labels.

The next assay deals with T7, hEphA2-clv385-534-Fc (human, UniProt P29317 385-534).
T7 construct: Recombinant fragment representing a cleavage form; not shown: human Fc, C-terminal to the EphA2 part
T7 sequence (P29317 385-534): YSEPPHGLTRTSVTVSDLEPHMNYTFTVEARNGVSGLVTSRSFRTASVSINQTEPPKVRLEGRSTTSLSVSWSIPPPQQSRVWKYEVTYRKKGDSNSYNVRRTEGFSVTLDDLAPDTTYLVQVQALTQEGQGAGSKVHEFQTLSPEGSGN
The assay is described as above. On the procedure:
as §2, §3, §4

Another assay concerns the target T8, hEphA2-clv395-534-Fc (human, UniProt P29317 395-534).
T8 construct: Recombinant fragment representing a cleavage form; not shown: human Fc, C-terminal to the EphA2 part
Described as above. On the procedure:
as §2, §3, §4

Assay [8] concerns the target T9, hEphA2-FN12-(327-534) - Fc (human, UniProt P29317 327-534).
T9 construct: also called FN1-FN2 domains Fc fusion; not shown: human Fc, C-terminal to the EphA2 part
Described as above. On the procedure:
as §2, §3, §4

In the next assay the target is T10, hEphA2-clv435-534-Fc (human, UniProt P29317 435-534).
T10 construct: Recombinant fragment representing a cleavage form; not shown: human Fc, C-terminal to the EphA2 part
T10 sequence (P29317 435-534): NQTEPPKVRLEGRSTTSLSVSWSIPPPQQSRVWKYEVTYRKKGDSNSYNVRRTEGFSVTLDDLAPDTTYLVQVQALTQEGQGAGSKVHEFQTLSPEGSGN
Described as above. On the procedure: as §2, §3, §4

The target in the next assay is T11, hEphA2-clv432-534-Fc (human, UniProt P29317 432-534).
T11 construct: Recombinant fragment representing a cleavage form; not shown: human Fc, C-terminal to the EphA2 part
T11 sequence (P29317 432-534): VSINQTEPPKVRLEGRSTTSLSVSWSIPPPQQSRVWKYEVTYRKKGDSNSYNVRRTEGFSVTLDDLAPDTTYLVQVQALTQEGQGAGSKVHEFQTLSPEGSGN
The description is as above. On the procedure: as §2, §3, §4

The target of assay [9] is T5, Human EphA2 (ephrin receptor A2) on …. Put plainly: cell-based or functional assay. The source holds these as a separate data set.
The target is the same in assay [10]. Put plainly: cell-based or functional assay. This is another data set of the same source.
For assay [11] the target is unchanged. Put plainly: flow cytometry on A549 cells. On the procedure: as §1
In assay [12] the target is T12, C-terminally His-tagged hEphA2-FN2 (Thr437-Asn534+His tag) (human, UniProt P29317 437-534).
T12 construct: also called FN2 domain of hEphA2
T12 sequence (P29317 437-534 limits assumed): as the sequence (P29317 437-534) above
Put plainly: SPR Biacore T200, 25 C; mIgG2a as immobilized ligand, hEphA2-FN2-His analyte. On the procedure:
Binding of EphA2 antibodies to the FN2 domain of hEphA2 was measured using the Biacore® T200 SPR system. Biacore® assays were conducted at 25° C. using HBS-EP+ buffer (0.01 M HEPES pH 7.4, 0.15 M NaCl, 3 mM EDTA, 0.005% v/v Surfactant P20) using the FN2 domain as the analyte with the antibodies in mIgG2a format as the immobilized ligand. Data was analyzed using 1:1 Langmuir binding model and steady-state model in Biacore Evaluation software.
C-terminally His-tagged human EphA2 FN2 domain (Thr437-Asn534+His tag) was used as the analyte. The analyte was associated for 120 seconds and dissociated for 100 seconds or 300 seconds at 30 μL/min.

Assay [13] concerns the target T12, C-terminally His-tagged hEphA2-FN2 …. Put plainly: SPR Biacore T200, 25 C; mIgG2a captured by anti-mouse Fc, hEphA2-FN2-His analyte; steady-state monovalent KD. On the procedure:
Binding of antibodies to the FN2 domain of hEphA2 was measured using the Biacore® T200 SPR system at 25° C. using HBS-EP+ buffer (0.01 M HEPES pH 7.4, 0.15 M NaCl, 3 mM EDTA, 0.005% v/v Surfactant P20). Antibodies in mIgG2a format were captured at levels between 475-715 RU via an anti-mouse Fc antibody immobilized to a CM5 chip. Binding was assessed using a titration of C-terminally His-tagged hEphA2-FN2 (Thr437-Asn534+His tag) associated for 30 s or 75 s at 30 μL/min. Data was double-reference subtracted using both a surface without captured antibody and from injections of HBS-EP+ buffer. The equilibrium response was measured at 4 seconds before the end of association with a window of 5 seconds and fit using the Biacore T200 Evaluation Software 3.1 with the Steady State Affinity Model.

Assay [14] addresses human 4-1BB on reporter cells (human, UniProt Q07011 24-255). Put plainly: cell-based or functional assay.

Substitutions are numbered along the chain they refer to.

The Kd is the free concentration of one partner at which half of the binding sites on the other are occupied at equilibrium, for simple one-to-one binding. Read a low Kd as tighter binding. A word on the koff: it is the rate constant with which the complex falls apart. Usually kon stands for the second-order rate constant of association. High values mean faster complex formation, low ones slower complex formation. As a reminder, the EC50 is the midpoint of the concentration-response curve.

T9 sequence (P29317 327-534): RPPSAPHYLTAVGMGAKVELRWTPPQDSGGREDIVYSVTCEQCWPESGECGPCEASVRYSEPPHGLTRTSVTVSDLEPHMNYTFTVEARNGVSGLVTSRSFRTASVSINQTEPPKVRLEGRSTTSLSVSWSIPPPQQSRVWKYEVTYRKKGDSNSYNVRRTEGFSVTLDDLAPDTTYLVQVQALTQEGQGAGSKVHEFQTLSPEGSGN
T8 sequence (P29317 395-534): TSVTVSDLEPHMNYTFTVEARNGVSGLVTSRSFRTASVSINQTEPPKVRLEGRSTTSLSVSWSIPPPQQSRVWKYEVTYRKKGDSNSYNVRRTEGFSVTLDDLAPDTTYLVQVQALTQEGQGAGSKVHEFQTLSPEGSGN
T4 sequence (Q03145 26-977): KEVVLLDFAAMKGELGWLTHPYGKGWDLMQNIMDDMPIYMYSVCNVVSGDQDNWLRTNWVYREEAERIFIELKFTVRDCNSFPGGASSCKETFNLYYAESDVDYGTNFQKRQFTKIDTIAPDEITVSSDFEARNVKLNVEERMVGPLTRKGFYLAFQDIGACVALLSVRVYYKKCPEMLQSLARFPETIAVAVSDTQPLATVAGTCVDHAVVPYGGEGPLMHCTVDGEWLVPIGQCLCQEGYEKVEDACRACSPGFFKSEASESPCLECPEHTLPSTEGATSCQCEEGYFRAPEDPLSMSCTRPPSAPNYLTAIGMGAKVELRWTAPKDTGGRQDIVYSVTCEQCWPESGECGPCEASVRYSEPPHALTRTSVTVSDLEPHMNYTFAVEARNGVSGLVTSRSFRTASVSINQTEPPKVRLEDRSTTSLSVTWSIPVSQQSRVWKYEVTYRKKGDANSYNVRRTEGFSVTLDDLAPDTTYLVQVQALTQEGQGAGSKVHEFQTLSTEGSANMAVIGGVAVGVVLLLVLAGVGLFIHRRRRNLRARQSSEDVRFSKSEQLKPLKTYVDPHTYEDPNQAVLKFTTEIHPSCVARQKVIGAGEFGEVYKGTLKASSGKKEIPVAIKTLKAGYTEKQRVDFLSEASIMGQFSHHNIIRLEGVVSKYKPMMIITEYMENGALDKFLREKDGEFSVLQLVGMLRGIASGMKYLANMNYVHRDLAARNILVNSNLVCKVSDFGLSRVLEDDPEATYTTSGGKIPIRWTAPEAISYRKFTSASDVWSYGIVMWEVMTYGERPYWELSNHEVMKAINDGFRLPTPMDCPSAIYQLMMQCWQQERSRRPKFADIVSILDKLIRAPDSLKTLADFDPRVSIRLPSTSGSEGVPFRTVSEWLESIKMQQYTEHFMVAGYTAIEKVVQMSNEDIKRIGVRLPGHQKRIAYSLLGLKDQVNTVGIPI
human 4-1BB on reporter cells, sequence (Q07011 24-255): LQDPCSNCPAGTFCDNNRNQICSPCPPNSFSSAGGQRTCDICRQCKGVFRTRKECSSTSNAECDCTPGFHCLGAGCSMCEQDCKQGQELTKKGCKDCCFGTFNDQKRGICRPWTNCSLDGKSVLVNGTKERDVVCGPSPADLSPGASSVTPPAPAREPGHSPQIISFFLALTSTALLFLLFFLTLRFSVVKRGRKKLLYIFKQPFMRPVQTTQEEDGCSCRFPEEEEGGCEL
T1 sequence (P54764 23-546 limits assumed): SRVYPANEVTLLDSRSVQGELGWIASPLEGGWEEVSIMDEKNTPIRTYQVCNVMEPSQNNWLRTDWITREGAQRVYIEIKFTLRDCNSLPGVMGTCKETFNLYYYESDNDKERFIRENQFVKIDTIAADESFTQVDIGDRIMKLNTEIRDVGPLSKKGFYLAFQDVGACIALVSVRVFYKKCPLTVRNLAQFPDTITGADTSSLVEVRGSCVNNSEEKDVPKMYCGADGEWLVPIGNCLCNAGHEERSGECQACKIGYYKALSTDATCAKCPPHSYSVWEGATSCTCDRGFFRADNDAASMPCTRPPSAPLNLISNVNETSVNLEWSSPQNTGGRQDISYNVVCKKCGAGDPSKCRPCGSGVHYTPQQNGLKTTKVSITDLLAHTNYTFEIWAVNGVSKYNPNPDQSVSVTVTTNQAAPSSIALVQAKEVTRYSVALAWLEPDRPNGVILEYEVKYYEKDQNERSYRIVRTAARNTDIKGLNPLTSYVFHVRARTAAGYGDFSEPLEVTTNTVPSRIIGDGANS
T2 sequence (P12314 16-374): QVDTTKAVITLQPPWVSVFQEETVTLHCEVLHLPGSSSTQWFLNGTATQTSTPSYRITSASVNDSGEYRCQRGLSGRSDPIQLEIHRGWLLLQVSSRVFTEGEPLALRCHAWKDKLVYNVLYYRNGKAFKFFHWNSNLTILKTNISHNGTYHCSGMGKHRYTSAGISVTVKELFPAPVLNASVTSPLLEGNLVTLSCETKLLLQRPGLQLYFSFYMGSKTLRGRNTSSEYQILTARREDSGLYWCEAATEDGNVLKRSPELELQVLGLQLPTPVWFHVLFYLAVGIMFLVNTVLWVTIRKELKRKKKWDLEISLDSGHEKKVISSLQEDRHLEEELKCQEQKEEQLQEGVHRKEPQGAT
T3 sequence (P54764 20-986): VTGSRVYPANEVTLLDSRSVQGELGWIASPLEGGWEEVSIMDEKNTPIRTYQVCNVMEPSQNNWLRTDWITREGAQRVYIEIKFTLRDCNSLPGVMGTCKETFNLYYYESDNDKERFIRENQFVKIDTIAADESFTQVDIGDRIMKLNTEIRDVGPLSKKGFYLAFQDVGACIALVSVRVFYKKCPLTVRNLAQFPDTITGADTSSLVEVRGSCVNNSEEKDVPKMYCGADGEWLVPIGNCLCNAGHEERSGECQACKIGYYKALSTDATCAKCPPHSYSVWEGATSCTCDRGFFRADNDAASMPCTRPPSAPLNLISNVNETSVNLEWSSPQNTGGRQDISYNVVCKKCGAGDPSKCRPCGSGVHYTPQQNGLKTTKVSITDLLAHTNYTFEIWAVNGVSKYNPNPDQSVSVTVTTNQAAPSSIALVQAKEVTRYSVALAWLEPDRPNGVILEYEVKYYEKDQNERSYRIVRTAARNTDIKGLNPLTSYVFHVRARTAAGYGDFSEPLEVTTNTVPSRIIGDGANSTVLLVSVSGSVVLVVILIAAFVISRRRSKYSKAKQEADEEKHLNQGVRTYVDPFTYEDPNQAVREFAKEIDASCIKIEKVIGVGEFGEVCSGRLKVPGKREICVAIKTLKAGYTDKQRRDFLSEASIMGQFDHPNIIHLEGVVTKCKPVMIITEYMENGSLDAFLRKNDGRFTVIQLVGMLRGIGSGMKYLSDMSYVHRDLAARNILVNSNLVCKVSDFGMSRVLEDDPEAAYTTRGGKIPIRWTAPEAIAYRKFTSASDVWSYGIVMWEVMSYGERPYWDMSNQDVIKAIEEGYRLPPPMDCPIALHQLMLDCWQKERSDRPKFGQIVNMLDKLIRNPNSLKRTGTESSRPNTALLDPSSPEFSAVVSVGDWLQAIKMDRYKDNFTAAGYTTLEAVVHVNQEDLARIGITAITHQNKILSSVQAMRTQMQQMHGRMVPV

B1: AB-008873 (antibody)
heavy: QVQLQQWGAGLLKPSETLSLTCAVYGGSFSDYYWSWIRQPPGKGLEWIGEVNHRGSINYNNYNPSLKSRVTISVDPSKNQFSLKLTSVTAADTAVYYCAKPLRPHCTNGVCYSGDAFDIWGQGTMVTVASAKTTAPSVYPLAPVCGDTTGSSVTLGCLVKGYFPEPVTLTWNSGSLSSGVHTFPAVLQSDLYTLSSSVTVTSSTWPSQSITCNVAHPASSTKVDKKIEPRGPTIKPCPPCKCPAPNLLGGPSVFIFPPKIKDVLMISLSPIVTCVVVDVSEDDPDVQISWFVNNVEVHTAQTQTHREDYNSTLRVVSALPIQHQDWMSGKEFKCKVNNKDLPAPIERTISKPKGSVRAPQVYVLPPPEEEMTKKQVTLTCMVTDFMPEDIYVEWTNNGKTELNYKNTEPVLDSDGSYFMYSKLRVEKKNWVERNSYSCSVVHEGLHNHHTTKSFSRTPG
light: SYVLTQPPSVSVAPGQTARITCGGNNIGSKNVHWYQQKPGQAPVLVVYDDSDRPSGIPEQFSGSNSGNTATLTISRVEAGDEADYYCQVWDSSSDHLVFGGGTKLTVLGQPKSSPSVTLFPPSSEELETNKATLVCTITDFYPGVVTVDWKVDGTPVTQGMETTQPSKQSNNKYMASSYLTLTARAWERHSSYSCQVTHEGHTVEKSLSRADCS
As for B1, the binding result in assay [1] is reported as “no binding (tested: about 300 nM)”; with FcGR1, “binds”; in assay [2], “no binding”. Moreover, the “fold (MedFI over isotype control)” value in assay [3] amounted to 16 fold. The “ADCC EC50 (nM), EMT6 cells” value in assay [4] was over 100 nM.

B2: AB-010699 (antibody, V domains shown)
VH: QVQLQQWGAGLLKPSETLSLTCAVYGGSFSGYYWSWIRQPPGKGLEWIGEINHRGSINYNNYNPSLKSRVTISVDTSKNQFSLKLSSVTAADTAVYYCAKPLRPHCINGVCYSGDAFDIWGQGTMVTVAS
VL: SYVLTQPPSVSVAPGQTARITCGGNNIGYKNVHWYQQKPGQAPVLVVYDDSDRPSGIPERFSGSNSGNTATLTISRVEAGDEADYYCQVWDHSSDHVVFGGGTKLTVL
As for B2, the “EC50 (read off the curve), EphA2 pY588 phosphorylation, soluble agonist titration” value in assay [5] was about 3e-09 M. For the same molecule, in assay [6], the “ADCC - EC50 (nM), Trial 1, A549” value is about 0.014 nM and the “ADCC - EC50 (nM), Trial 2, A549” value worked out at 0.0058 nM.

B3: AB-010699 human Fab fragment (Fab, V domains shown)
VH: B2 VH
VL: B2 VL
notes: Human Fab format
Consider B3, for which the Kd in assay [7] was 8.6 nM; in the assay with hEphA2-clv385-534-Fc, 12 nM; with hEphA2-clv395-534-Fc, 12 nM; in assay [8], 8.6 nM; in the assay with hEphA2-clv435-534-Fc, 9.3 nM; in the assay with hEphA2-clv432-534-Fc it was 9.6 nM. The koff in [7] was 0.085 s⁻¹; with hEphA2-clv385-534-Fc, 0.072 s⁻¹; with hEphA2-clv395-534-Fc, 0.07 s⁻¹; in [8], 0.043 s⁻¹; with hEphA2-clv435-534-Fc, 0.078 s⁻¹; in the assay with hEphA2-clv432-534-Fc, 0.075 s⁻¹. Besides, the kon in [7] was 1e+07 M⁻¹ s⁻¹; in the assay with hEphA2-clv385-534-Fc, 6.05e+06 M⁻¹ s⁻¹; with hEphA2-clv395-534-Fc, 5.72e+06 M⁻¹ s⁻¹; in [8], 5e+06 M⁻¹ s⁻¹; with hEphA2-clv435-534-Fc, 8.42e+06 M⁻¹ s⁻¹; with hEphA2-clv432-534-Fc it was 7.78e+06 M⁻¹ s⁻¹.

B4: AB-009815 (antibody, mouse IgG2a, V domains shown)
VH: B2 VH with G31D, I51V, S86T, I107T
VL: B2 VL with Y29S, R60Q, H92S, V97L
For B4, in assay [9], the “EC50 (read off the curve), ADC activity” value is about 2 nM. Also, in assay [10], the “ADCC Delta, A549 cells” value is 59.8 and the “ADCC EC50 (nM), A549 cells” value amounted to 10.4 nM. In addition, in assay [11], the EC50 was 5.5 nM and the “Flow Delta” value came to 745000.

B5: AB-010699 (mouse IgG2a format) (antibody, V domains shown)
VH: B2 VH
VL: B2 VL
notes: tested in mIgG2a format
With B5, in assay [12], the Kd was found to be 19 nM, the koff was determined as 0.075 s⁻¹ and the kon was found to be 3.9e+06 M⁻¹ s⁻¹. For the same molecule, binding in [13] was put at a Kd of 18.9 nM.

B6: Urelumab (AB-009811) (antibody, V domains shown)
VH: QVQLQQWGAGLLKPSETLSLTCAVYGGSFSGYYWSWIRQSPEKGLEWIGEINHGGYVTYNPSLESRVTISVDTSKNQFSLKLSSVTAADTAVYYCARDYGPGNYDWYFDLWGRGTLVTVSS
VL: EIVLTQSPATLSLSPGERATLSCRASQSVSSYLAWYQQKPGQAPRLLIYDASNRATGIPARFSGSGSGTDFTLTISSLEPEDFAVYYCQQRSNWPPALTFGGGTKVEIK
Turning to B6, the “EC50 (read off the curve), 4-1BB reporter activation with PC3” value in assay [14] was about 0.3 nM.
